# Results from publication PMC7642358 (Nature Communications, 2020).
# Residue numbers refer to the chain shown, from its start.
# B1: sybody 23 (Sb23) (VHH)
# VHH: QVQLVESGGGLVQAGGSLRLSCAASGFPVESENMHWYRQAPGKEREWVAAIYSTGGWTLYADSVKGRFTISRDNAKNTVYLQMNSLKPEDTAVYYCAVQVGYWYEGQGTQVTVS
# notes: source: E. coli MC1061 F-, periplasmic extract, purified (Ni-NTA, desalted in PBS)
# B2: 78 (VHH)
# VHH: QVQLVESGGGSVQAGGSLRLSCAASGYIKSIKYLGWFRQAPGKEREGVAALMTRYGETYYADSVKGRFTVSLDNAKNTVYLQMNSLKPEDTALYYCAAANYGNNWPLTGVNYWYWGQGTQVTVS
# B3: 93 (VHH)
# VHH: QVQLVESGGGSVQAGGSLRLSCAASGHIAQIEYLGWFRQAPGKEREGVAALSTNQGYTYYADSVKGRFTVSLDNAKNTVYLQMNSLKPEDTALYYCAAARWGRTYPLSYMAYTYWGQGTQVTVS
# B4: 88 (VHH)
# VHH: QVQLVESGGGLVQAGGSLRLSCAASGFPVWAHHMLWYRQAPGKEREWVAAIASWGANTAYADSVKGRFTISRDNAKNTVYLQMNSLKPEDTAVYYCNVKDSGQYRENYDYWGQGTQVTVS
# B5: 86 (VHH)
# VHH: QVQLVESGGGSVQAGGSLRLSCAASGTIASIIYLGWFRQAPGKEREGVAALNTWNGKTYYADSVKGRFTVSLDNAKNTVYLQMNSLKPEDTALYYCAAAYSGMWYPLSNEHYGYWGQGTQVTVS
# B6: 85 (VHH)
# VHH: QVQLVESGGGSVQAGGSLRLSCAASGSISSITYLGWFRQAPGKEREGVAALVTSRGKTYYADSVKGRFTVSLDNAKNTVYLQMNSLKPEDTALYYCAAASWGYTWPLYTYDYWYWGQGTQVTVS
# B7: 83 (VHH)
# VHH: QVQLVESGGGSVQAGGSLRLSCAASGGITHIVYLGWFRQAPGKEREGVAALMTRWGTTYYADSVKGRFTVSLDNAKNTVYLQMNSLKPEDTALYYCAAAKYGQNFPLSYHAYRYWGQGTQVTVS
# B8: 81 (VHH)
# VHH: QVQLVESGGGSVQAGGSLRLSCAASGYIHRIEYLGWFRQAPGKEREGVAALSTISGNTYYADSVKGRFTVSLDNAKNTVYLQMNSLKPEDTALYYCAAARFGRAYPLHYYQYTYWGQGTQVTVS
# B9: 84 (VHH)
# VHH: QVQLVESGGGSVQAGGSLRLSCAASGYIKHIEYLGWFRQAPGKEREGVAALKTSSGSTYYADSVKGRFTVSLDNAKNTVYLQMNSLKPEDTALYYCAAARYGRSDPLHYHEYSYWGQGTQVTVS
# B10: 77 (VHH)
# VHH: QVQLVESGGGSVQAGGSLRLSCAASGSISSITYLGWFRQAPAKSVRAVAALDTEQGETYYADSVKGRFTVSLDNAKNTVYLQMNSLKPEDTALYYCAAANQHGGYYPLDSAWYTYWGQGTQVTVS
# B11: 82 (VHH)
# VHH: QVQLVESGGGSVQAGGSLRLSCAASGTINSIHYLGWFRQAPGKEREGVAALDTYIGYTYYADSVKGRFTVSLDNAKNTVYLQMNSLKPEDTALYYCAAARWGRTSPLHWYYYTYWGQGTQVTVS
# B12: 75 (VHH)
# VHH: QVQLVESGGGSVQAGGSLRLSCAASGYINQIYYLGWFRQAPGKEREGVAALNTYQGQTYYADSVKGRFTVSLDNAKNTVYLQMNSLKPEDTALYYCAAARWGRDEPLYHYYYSYWGQGTQVTVS
# B13: 79 (VHH)
# VHH: B12 VHH with N29H, Q30T, Y32E, N52Y, Y54L, Q55K, E105T, Y108H, H109Y, Y110Q
# B14: 94 (VHH)
# VHH: B12 VHH with N29T, Q30M, Y32E, Y54H, Q55T, Q57G, D104Y, Y108H, H109Y, Y110A
# B15: 90 (VHH)
# VHH: B12 VHH with Y27A, N52S, Y54K, Q55Y, Q57E, D104Q, E105Y, Y108T, H109F, Y110V
# B16: 97 (VHH)
# VHH: QVQLVESGGGSVQAGGSLRLSCAASGAISTIEYLGWFRQAPGREREGVAALYTERGYTYYADSVKGRFTVSLDNAKNTVYLQMNSLKPEDTALYYCAAARYGHAQAPLHYFWYGYWGQGTQVTVS
# B17: sybody 95 (Sb95) (VHH)
# VHH: B2 VHH with Y27N, K29Y, S30N, N100S, N103A, T108V, G109S, V110A, N111A, W113T
# notes: as for B1
# B18: sybody 76 (Sb76) (VHH)
# VHH: QVQLVESGGGLVQAGGSLRLSCAASSFPVDTYHMAWYRQAPGKEREWVAAIVSWGWRTYYADSVKGRFTISRDNAKNTVYLQMNSLKPEDTAVYYCNVKDIGAQEVHYDYWGQGTQVTVS
# notes: as for B1
# B19: sybody 100 (Sb100) (VHH)
# VHH: B6 VHH with R55D, K57R, S100N, T104S, T109Q, Y110T, D111E
# notes: as for B1
# B20: sybody 42 (Sb42) (VHH)
# VHH: QVQLVESGGGLVQAGGSLRLSCAASGFPVYNTWMEWYRQAPGKEREWVAAITSWGFKTYYADSVKGRFTISRDNAKNTVYLQMNSLKPEDTAVYYCNVKDEGYTGYYYDYWGQGTQVTVS
# notes: as for B1
# B21: sybody 12 (Sb12) (VHH)
# VHH: QVQLVESGGGLVQAGGSLRLSCAASGFPVQLYWMEWYRQAPGKEREWVAAITSDGDYTEYADSVKGRFTISRDNAKNTVYLQMNSLKPEDTAVYYCYVKVGEWYYGQGTQVTVS
# notes: as for B1
# Target: T1, SARS-CoV-2 spike receptor-binding domain (2019-nCoV RBD-SD1, residues 319–566) (SARS-CoV-2, UniProt P0DTC2)
# Experiment: thermal shift (nanoDSF)
# Details: both partners purified
row,Binder,increase of the melting temperature of RBD
1,B1,~10 degrees

# Target: T1, SARS-CoV-2 spike receptor-binding …
# Experiment: not given
# Details: not given
row,Binder,binding result
1,B2,binds
2,B3,binds
3,B4,binds
4,B5,binds
5,B6,binds
6,B7,binds
7,B8,binds
8,B9,binds
9,B10,binds
10,B11,binds
11,B12,binds
12,B13,binds
13,B14,binds
14,B15,binds
15,B16,binds

# Target: T1, SARS-CoV-2 spike receptor-binding …
# Experiment: BLI
# Details: both partners purified
row,Binder,Kd
1,B17,43.9 nM
2,B18,58.1 nM
3,B1,10.6 nM
4,B19,38.7 nM
5,B20,5 nM
6,B21,24.2 nM
